Assay results from the supplement of paper PMC9732359.
± gives the uncertainty stated by the source.

Assay: protein stability index of a GFP-peptide fusion (yeast GPS) (PSI 1-4); higher = more stable; sorted into four equal gates, so the index is relative within each strain
How it was run: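 Each library plasmid carries Cherry plus GFP with a tiled 17-residue yeast protein peptide fused downstream, and the pooled library was carried in yeast. Mid-log cultures in leucine-free medium were sorted into four equal gates by GFP/Cherry ratio. Reads from Illumina sequencing of PCR-amplified plasmids from each gate were assigned to strains by barcodes. Per peptide, the protein stability index was computed as the summed products of gate read frequency and gate number.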

Sequence | protein stability index (doa10∆) | protein stability index (pdr5∆) | protein stability index (san1∆) | protein stability index (ubr1∆)
AAAVSGNNASDEPSRKK [SSN3] | 2.68 ± 0.13 | 3.05 ± 0.11 | 2.78 ± 0.14 | 3.05 ± 0.11
AAEKSFKPPKNKYKVVR [SEC65] | 3 ± 0.28 | 3.08 ± 0.19 | 3.05 ± 0.12 | 3.15 ± 0.12
AAHYNRERIKRGAHVEK [PRP8] |  |  | 2.79 ± 0.29 | 2.77 ± 0.19
AAKEGLALSSNISRDFQ [COR1] | 2.71 ± 0.089 | 3.08 ± 0.071 | 3.13 ± 0.079 | 2.76 ± 0.096
AAKGSSTSYAIKKKDEL [RPS5] | 3.4 ± 0.18 | 1.82 ± 0.085 | 3.35 ± 0.087 | 3.28 ± 0.13
AAKLRTLDYAERHGYIR [RPL2A] | 3.38 ± 0.11 | 3.27 ± 0.14 | 2.9 ± 0.16 | 3.37 ± 0.13
AAMVPFIKFKLIQQVPP [CDC53] | 2.12 ± 0.062 | 1.92 ± 0.07 | 2.17 ± 0.1 | 2.07 ± 0.068
AAPAAAAAEIADEPVKA [FAS2] | 2.55 ± 0.063 | 2.74 ± 0.067 | 2.56 ± 0.078 | 2.53 ± 0.045
AAQTNATFLKLAAPQLV [RPT5] | 2.62 ± 0.16 | 3.17 ± 0.15 | 2.41 ± 0.083 | 2.86 ± 0.11
AARYDYAVAEQCPVKSA [QCR2] |  |  |  | 1.88 ± 0.065
AASLGDMVMATVKKGKP [RPL23A] | 2.6 ± 0.1 | 1.96 ± 0.087 | 3.5 ± 0.099 | 2.91 ± 0.078
AASLIMPFLDNQVNFKN [PRE7] |  | 2.7 ± 0.081 | 1.31 ± 0.17 | 1.39 ± 0.093
AAVETLYQDMAARHRAR [RPL20A] | 2.96 ± 0.065 | 3.23 ± 0.059 | 2.91 ± 0.051 | 2.91 ± 0.064
ACDPSEIEPILMEIHNI [RGR1] | 2.82 ± 0.13 | 2.74 ± 0.1 | 3.16 ± 0.08 | 2.92 ± 0.067
ACLGNDGILRLYDALEP [YGL100W/SEH1] | 2.21 ± 0.058 | 2.19 ± 0.048 | 1.86 ± 0.065 | 1.96 ± 0.034
ADDAISMHLLKDWTDTF [SRB8] | 3.12 ± 0.056 | 2.94 ± 0.058 | 2.94 ± 0.044 | 2.95 ± 0.065
ADEQKRSTDVWYEASTW [ARP7] | 2.36 ± 0.06 | 2.55 ± 0.049 | 2.78 ± 0.052 | 2.73 ± 0.048
ADGQTLFAGYTDNVIRV [ASC1] | 1.85 ± 0.055 | 2.16 ± 0.052 | 2.22 ± 0.063 | 2.35 ± 0.057
ADKNCAKLHRISPKIWC [PUP1] | 2.09 ± 0.055 | 2.1 ± 0.061 | 1.94 ± 0.059 | 2.14 ± 0.05
ADLPGSYNLEYIESKFC [YMR129W/POM152] | 3.16 ± 0.13 | 3.38 ± 0.19 | 3.13 ± 0.14 | 3.24 ± 0.093
ADQEQAKLIRSAIEHTT [RPO21] | 3.19 ± 0.12 | 2.96 ± 0.15 | 2.82 ± 0.1 | 2.84 ± 0.1
ADVTSNIDSSAQFTFGK [YOR098C/NUP1] | 3.05 ± 0.093 | 3.25 ± 0.087 | 2.89 ± 0.091 | 3.13 ± 0.057
ADYWTHAYRDVLAQYHE [SNF6] | 3.02 ± 0.071 | 3.23 ± 0.08 | 3.06 ± 0.058 | 2.81 ± 0.049
AEEFVAGVSHGTLGEIF [SMX3] |  |  |  | 3.57 ± 0.28
AEKLGSKKAEKTGTKPA [RPL4A] | 3.14 ± 0.067 | 3.08 ± 0.07 | 3.13 ± 0.05 | 3.06 ± 0.072
AEKYQERSLRQKYNLLH [SNM1] | 2.32 ± 0.057 | 2.73 ± 0.074 | 3.23 ± 0.067 | 3.12 ± 0.083

Sequence | protein stability index (doa10∆) | protein stability index (pdr5∆) | protein stability index (san1∆) | protein stability index (ubr1∆)
AEQPLPVSPLDIYSDEA [RPS2] | 2.79 ± 0.07 | 2.97 ± 0.064 | 2.9 ± 0.038 | 2.92 ± 0.052
AEQSFDQQSPWLLRLEL [RPO21] | 3 ± 0.052 | 3.14 ± 0.051 | 3.1 ± 0.039 | 3.11 ± 0.04
AETTFLQDVIALSIADD [RPC53] | 2.24 ± 0.07 | 1.8 ± 0.065 | 1.97 ± 0.12 | 2.18 ± 0.07
AFALAKEKAPTIIFIDE [RPT5] | 2.79 ± 0.12 | 2.78 ± 0.12 | 2.83 ± 0.14 | 2.88 ± 0.086
AFFTYDAGVTFNKEQLN [ECM29] | 2.07 ± 0.052 | 3.08 ± 0.1 | 2.63 ± 0.083 | 2.58 ± 0.061
AFGEFSLEGCVEMAWIM [FAS2] | 2.46 ± 0.1 | 2.63 ± 0.12 | 2.48 ± 0.079 | 2.37 ± 0.088
AFGGSATTGGGLFGNKP [YGL172W/NUP49] | 3.26 ± 0.091 | 2.7 ± 0.26 |  | 3.16 ± 0.12
AFHLHCINKWIKTRDAC [HRT1] | 1.86 ± 0.089 | 2 ± 0.076 | 1.66 ± 0.14 | 2.19 ± 0.065
AFITQLESSITDAGVLA [YJL039C/NUP192] | 1.54 ± 0.06 | 1.6 ± 0.057 | 1.16 ± 0.14 | 1.08 ± 0.096
AFKHKRALVEHIIQAKA [RPL19A] | 3.11 ± 0.13 | 3.37 ± 0.1 | 3.19 ± 0.12 | 3.19 ± 0.072
AFNFSFNTSRNVEPTEN [YAR002W/NUP60] | 3.3 ± 0.052 | 3.3 ± 0.079 | 3.41 ± 0.064 | 3.04 ± 0.051
AGAAGAAAGGDAAEEEK [RPP2B] |  |  |  | 1.27 ± 0.27
AGLDKGISINNMMEHWD [RPO31] | 3.04 ± 0.13 | 3.09 ± 0.091 | 3.02 ± 0.086 | 3.14 ± 0.05
AGQIPTGWNAKTYGISD [FAS2] | 1.68 ± 0.14 | 1.36 ± 0.12 | 1.66 ± 0.26 | 1.23 ± 0.09
AGRGFTLAEVKAAGLTA [RPL13A] | 2.27 ± 0.073 | 2.5 ± 0.071 | 1.56 ± 0.093 | 1.77 ± 0.044
AGSTGFSFGQNNNNTNT [YGR119C/NUP57] | 2.52 ± 0.068 | 2.5 ± 0.072 | 2.32 ± 0.092 | 2.32 ± 0.064
AHLYMLEPSGSYWGYKG [PRE10] | 1.66 ± 0.069 | 1.7 ± 0.13 | 2.06 ± 0.21 | 1.84 ± 0.082
AHTGATPIAGRFTPGSF [RPS0A] | 3.15 ± 0.17 | 2.91 ± 0.08 | 2.52 ± 0.17 | 2.81 ± 0.12
AIAGNSTTNSDVSLLLQ [RGR1] | 3.09 ± 0.13 | 2.19 ± 0.082 | 3.03 ± 0.056 | 3.13 ± 0.071
AIGTKRYDSNSGGEREI [RPT2] | 3.28 ± 0.22 | 3.54 ± 0.11 | 3.39 ± 0.12 | 3.5 ± 0.13
AIGYEPLSLTHRDKNKM [DIS3] | 2.83 ± 0.058 | 2.9 ± 0.061 | 2.88 ± 0.063 | 2.93 ± 0.042
AIHIFESYYNWKYNNFL [YML103C/NUP188] | 2.04 ± 0.13 | 1.6 ± 0.1 | 1.94 ± 0.24 | 2.62 ± 0.17
AILKLLENMPHPWEQAK [PRP8] | 2.76 ± 0.12 | 2.05 ± 0.088 | 1.93 ± 0.13 | 2.16 ± 0.057
AILQEKILSILNRSHFA [ECM29] | 1.87 ± 0.05 | 2.15 ± 0.052 | 2.27 ± 0.054 | 2.35 ± 0.051
AILYTKPGHVLQEEWDQ [YGR119C/NUP57] |  | 3.25 ± 0.14 |  | 3.81 ± 0.23
